Test results as given in patent publication US20140377806A1.
pKd: −log10 of the molar value.

What was measured:
[1] = target: human CXCR3 (full length, splice variant A) expressed on transfected cells (human) (UniProt P49682)
[2] = target: human CXCR3 (full length, splice variant A) expressed on transfected cells (human) (UniProt P49682); remark: listed apart in the source
[3] = target: human CXCR3 (full length, splice variant A) expressed on transfected cells (human) (UniProt P49682); test: cell-based or functional assay
[4] = target: Full-length human CXCR3 receptor protein with C-terminal 6xHis and HPC4 tag (human) (UniProt P49682); test: SPR (Biacore whole receptor assay), receptor on NTA chip, 1:1 fit

Question: Which results are given for “Anti-hCXCR3 mAb clone 1C6 (Becton, Dickinson catalog #557183) (antibody)”?
Answer: IC50 (read off the curve), inhibition of CXCL10-induced calcium mobilization [all five panels] [1]: 3 µg/mL; IC50, inhibition of CXCL11-induced calcium mobilization in hCXCR3 HEK cells (FLIPR); bar labelled '+ CTRL' (panels A to C of the same sheet print '1C6 (+ CTRL)') [2]: 0.12 µg/mL; IC50 (M), calcium mobilization to CXCL10 in human CXCR3-Gqi4qi4 CHO cells [3]: 3.14e-06 M; pKd [4]: 8.45; koff [4]: 0.000142 s⁻¹; kon [4]: 41100 M⁻¹ s⁻¹

Question: How did the IC50, inhibition of CXCL11-induced calcium mobilization in hCXCR3 HEK cells (FLIPR); isotype control [2] turn out when CTRL IgG1 (antibody) was run?
Answer: 27.6 µg/mL

Question: What does the source list for “human CXCL10 (from UniProt P02778 22-98) (ligand)”?
Answer: pKd [4]: 8.01; koff [4]: 0.00127 s⁻¹; kon [4]: 136000 M⁻¹ s⁻¹

Question: “human CXCL11 (from UniProt O14625 22-94) (ligand)” was tested. Which pKd [4] did it give?
Answer: 8.76

Question: What about the koff [4] of the same substance?
Answer: 0.00441 s⁻¹

Question: What about the kon [4] of the same substance?
Answer: 2.58e+06 M⁻¹ s⁻¹

Question: What does the source list for “mouse CXCL11 (from UniProt Q9JHH5 22-100) (ligand)”?
Answer: pKd [4]: 8.93; koff [4]: 0.00426 s⁻¹; kon [4]: 3.69e+06 M⁻¹ s⁻¹
